Results reported in patent US20250136694A1 (HARBOUR BIOMED SHANGHAI, published 2025).

T1: human B7-H4 (protein in solution, BLI) (human, UniProt Q7Z7D3 25-258, limits assumed)
T1 sequence (looked up): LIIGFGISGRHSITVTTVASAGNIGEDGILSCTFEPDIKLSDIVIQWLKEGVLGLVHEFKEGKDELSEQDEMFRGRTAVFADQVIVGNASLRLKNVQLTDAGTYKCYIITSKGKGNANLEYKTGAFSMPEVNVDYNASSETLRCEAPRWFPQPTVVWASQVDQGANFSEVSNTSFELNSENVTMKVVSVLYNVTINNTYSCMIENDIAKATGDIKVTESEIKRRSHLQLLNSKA

T2: mouse B7-H4 on the cell surface (mouse, UniProt Q7TSP5 25-257)
T2 construct: whole, on cells; also called m B7-H4; CHO-K1/mB7-H4
T2 sequence (looked up): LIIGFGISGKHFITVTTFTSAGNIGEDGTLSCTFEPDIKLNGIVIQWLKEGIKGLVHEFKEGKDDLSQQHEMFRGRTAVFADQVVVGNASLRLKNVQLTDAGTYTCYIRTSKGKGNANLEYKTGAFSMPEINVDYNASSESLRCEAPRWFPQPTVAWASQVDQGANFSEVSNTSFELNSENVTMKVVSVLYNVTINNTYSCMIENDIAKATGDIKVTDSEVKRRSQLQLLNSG

T3: cynomolgus monkey B7-H4 on the cell surface (cynomolgus monkey, UniProt A0A2K5U6P5 25-282)
T3 construct: whole, on cells; also called cyno B7-H4; CHO-K1/cynoB7-H4
T3 sequence: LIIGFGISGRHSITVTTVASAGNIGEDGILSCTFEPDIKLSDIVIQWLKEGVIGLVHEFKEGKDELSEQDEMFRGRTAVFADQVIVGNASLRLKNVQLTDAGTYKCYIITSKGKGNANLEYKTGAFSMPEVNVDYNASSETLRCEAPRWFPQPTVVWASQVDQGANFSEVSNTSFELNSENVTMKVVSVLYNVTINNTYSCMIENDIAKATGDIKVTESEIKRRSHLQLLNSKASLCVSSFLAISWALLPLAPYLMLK

T4: human B7-H4 on the cell surface (human, UniProt Q7Z7D3 25-282)
T4 construct: whole, on cells; also called hu B7-H4; CHO-K1/huB7-H4
T4 sequence (looked up): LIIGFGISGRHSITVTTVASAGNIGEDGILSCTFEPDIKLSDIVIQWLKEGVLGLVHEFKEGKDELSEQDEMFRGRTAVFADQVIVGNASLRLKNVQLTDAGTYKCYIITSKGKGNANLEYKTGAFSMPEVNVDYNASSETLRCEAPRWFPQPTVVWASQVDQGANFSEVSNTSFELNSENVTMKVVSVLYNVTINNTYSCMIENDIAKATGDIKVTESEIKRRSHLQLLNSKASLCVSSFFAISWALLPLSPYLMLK


How the values were obtained:
[1] = target: T1, human B7-H4 (protein in solution, BLI); test: BLI (Octet), antibody captured on AHC sensor, antigen in solution
Experimental: The binding kinetics between the antigen and the antibody was analyzed by the biolayer interferometry (BLI) technique using an Octet Red 96e molecular interaction analyzer (Fortebio).
When the affinity of the antigen for the antibody was determined, the rotation speed of the sensor was set at 1000 rpm/min. […] Finally, the AHC sensor was immersed in a 10 mM glycine-hydrochloric acid solution at pH 1.5 for regeneration to elute the proteins bound to the sensor.
When data analysis was performed using Octet Data Analysis software (Fortebio, version 11.0), 0 nM was taken as a reference well, and reference subtraction was performed; the “1:1 Global fitting” method was selected to fit the data, and the kinetics parameters of the binding of antigens to antigen-binding proteins were calculated, with kₒₙ(1/Ms) values, kdis(1/s) values, and KD(M) values obtained (see Table 3 and FIG. 2).

[2] = target: T2, mouse B7-H4 on the cell surface; test: FACS on CHO-K1/mB7-H4 cells
[3] = target: T3, cynomolgus monkey B7-H4 on the cell …; test: FACS, CHO-K1/cyno B7-H4 cells
Experimental: (§1) Briefly, cells were digested and resuspended in PBS containing 2% FBS, and the cell density was adjusted to 1×10⁶ cells/mL. The cells were seeded in a 96-well V-bottom plate (Corning, Cat #3894) at 100 μL/well, followed by the addition of test antibodies 3-fold serially diluted at a concentration that was 2 times the final concentration, each at 100 μL/well. The cells were incubated away from light at 4° C. for 2 h. Then, the cells in each well were rinsed twice with 100 μL of pre-cooled PBS and centrifuged at 500 g at 4° C. for 5 min, and then the supernatant was discarded. […] The cells in each well were then rinsed twice with 100 μL of pre-cooled PBS and centrifuged at 500 g at 4° C. for 5 min, and then the supernatant was discarded. Finally, the cells in each well were resuspended in 200 μL of pre-cooled PBS, and the fluorescence signal values were read using ACEA Novocyte3000.

[4] = target: T4, human B7-H4 on the cell surface; test: FACS, MDA-MB-468 cells
Experimental: as §1

[5] = target: T4, human B7-H4 on the cell surface; test: FACS, CHO-K1/hu B7-H4 cells
Experimental: as §1

[6] = target: T4, human B7-H4 on the cell surface; test: FACS, CHO-K1/hu B7-H4 cells; remark: listed apart in the source
Experimental: as §1

[7] = target: T2, mouse B7-H4 on the cell surface; test: FACS, CHO-K1/m B7-H4 cells
Experimental: as §1

| Binder | Kd [1] [nM] | koff [1] [s⁻¹] | kon [1] [M⁻¹ s⁻¹] | binding result [2] | EC50 [3] [nM] | Maximum MFI [3] [MFI] | EC50 [4] [nM] | Maximum MFI [4] [MFI] | EC50 [5] [nM] | EC50 [6] [nM] | Maximum MFI [6] [MFI] | EC50 [7] [nM] |
| --- | --- | --- | --- | --- | --- | --- | --- | --- | --- | --- | --- | --- |
| PR006004 (antibody, V domains shown, also called R7004M1A2; anti-human B7-H4 HCAb monoclonal antibody) VH: EVQLVESGGGLVQPGGSLRLSCAASGFAFSNYWMHWARQVPGKGRVWISRISGDGRSTSYADSVKGRFTISRDNAKNMVYLQMNNLRAEDTAVYYCARDRFGDDYYYGMNVWGQGTTVTVSS | 1.89 | 0.000396 | 210000 | no binding (tested: 100 nM) | 1.65 | 1.57e+06 | 5.19 | 183000 | 4.86 | 2.75 | 1.63e+06 |  |
| PR007196 (antibody, IgG1, V domains shown, also called charge variant of PR006004 (V46E, G55S, R56E)) VH: EVQLVESGGGLVQPGGSLRLSCAASGFAFSNYWMHWARQVPGKGREWISRISGDSESTSYADSVKGRFTISRDNAKNMVYLQMNNLRAEDTAVYYCARDRFGDDYYYGMNVWGQGTTVTVSS |  |  |  |  |  |  |  |  |  | 3.72 | 971000 |  |
| PR007195 (antibody, IgG1, V domains shown, also called charge variant of PR006004 (V46E, G55S, R56D, A61E)) VH: EVQLVESGGGLVQPGGSLRLSCAASGFAFSNYWMHWARQVPGKGREWISRISGDSDSTSYEDSVKGRFTISRDNAKNMVYLQMNNLRAEDTAVYYCARDRFGDDYYYGMNVWGQGTTVTVSS |  |  |  |  |  |  |  |  |  | 5.65 | 1.58e+06 |  |
| PR007200 (antibody, IgG1, V domains shown, also called charge variant of PR006004 (V46E, G55S, R56S)) VH: EVQLVESGGGLVQPGGSLRLSCAASGFAFSNYWMHWARQVPGKGREWISRISGDSSSTSYADSVKGRFTISRDNAKNMVYLQMNNLRAEDTAVYYCARDRFGDDYYYGMNVWGQGTTVTVSS |  |  |  |  |  |  |  |  |  | 5.39 | 1.48e+06 |  |
| PR007201 (antibody, IgG1, V domains shown, also called charge variant of PR006004 (V46E, G55S, R56S, A61E)) VH: EVQLVESGGGLVQPGGSLRLSCAASGFAFSNYWMHWARQVPGKGREWISRISGDSSSTSYEDSVKGRFTISRDNAKNMVYLQMNNLRAEDTAVYYCARDRFGDDYYYGMNVWGQGTTVTVSS |  |  |  |  |  |  |  |  |  | 5.5 | 1.46e+06 |  |
| PR006008 (antibody, IgG1, V domains shown, also called R7004M6D4; anti-human B7-H4 HCAb monoclonal antibody) VH: EVQLVESGGGLVQPGGSLRLSCAASGFTFTDFWMHWVRQVPGKGREWVSRISPDGSSTSYEDSVKGRFTISRDNAKNTVYLQMHGLRAEDTAVYYCTRFSTGWHRIEYFQHWGQGTLVTVSS | 3.65 | 0.00114 | 312000 |  | 0.432 | 1.25e+06 | 0.162 | 149000 | 1.07 |  |  | 0.403 |

Other lines, results leading:

| Kd [1] [nM] | koff [1] [s⁻¹] | kon [1] [M⁻¹ s⁻¹] | binding result [2] | EC50 [3] [nM] | Maximum MFI [3] [MFI] | EC50 [4] [nM] | Maximum MFI [4] [MFI] | EC50 [5] [nM] | EC50 [6] [nM] | Maximum MFI [6] [MFI] | EC50 [7] [nM] | Binder |
| --- | --- | --- | --- | --- | --- | --- | --- | --- | --- | --- | --- | --- |
|  |  |  | no binding (tested: 100 nM) | 3.06 | 1.59e+06 | 9.18 | 185000 |  |  |  |  | PR007440 (antibody, IgG1, V domains shown, also called PTM variant (G55S) of PR006004) VH: EVQLVESGGGLVQPGGSLRLSCAASGFAFSNYWMHWARQVPGKGRVWISRISGDSRSTSYADSVKGRFTISRDNAKNMVYLQMNNLRAEDTAVYYCARDRFGDDYYYGMNVWGQGTTVTVSS |
|  |  |  |  |  |  |  |  |  | 5.58 | 1.51e+06 |  | PR007202 (antibody, IgG1, V domains shown, also called charge variant of PR006004 (V46E, G55S, R56T)) VH: EVQLVESGGGLVQPGGSLRLSCAASGFAFSNYWMHWARQVPGKGREWISRISGDSTSTSYADSVKGRFTISRDNAKNMVYLQMNNLRAEDTAVYYCARDRFGDDYYYGMNVWGQGTTVTVSS |
|  |  |  |  |  |  |  |  |  | 5.41 | 1.53e+06 |  | PR007203 (antibody, IgG1, V domains shown, also called charge variant of PR006004 (V46E, G55S, R56T, A61E)) VH: EVQLVESGGGLVQPGGSLRLSCAASGFAFSNYWMHWARQVPGKGREWISRISGDSTSTSYEDSVKGRFTISRDNAKNMVYLQMNNLRAEDTAVYYCARDRFGDDYYYGMNVWGQGTTVTVSS |
|  |  |  |  | 0.721 | 1.26e+06 | 0.244 | 148000 |  |  |  | 0.617 | PR007441 (antibody, IgG1, V domains shown, also called PTM variant (G55S) of PR006008) VH: EVQLVESGGGLVQPGGSLRLSCAASGFTFTDFWMHWVRQVPGKGREWVSRISPDSSSTSYEDSVKGRFTISRDNAKNTVYLQMHGLRAEDTAVYYCTRFSTGWHRIEYFQHWGQGTLVTVSS |
